Data as given in publication PMC13156308.
pKd: −log10 of the molar value.

How the values were obtained:
[1] = molecular target: full-length strep-tagged POLD3 (human) (UniProt Q15054); experiment: BLI; POLD3 immobilised on Streptavidin (SAX) biosensors, BLItz, 1x PBS and 0.02% Tween
GST-tagged MCM2 (human) = GST-tagged MCM2 (human) (UniProt P49736); experiment: BLI; MCM2 immobilised on Anti-GST biosensors, BLItz, 1x PBS and 0.02% Tween; analyte 0-50.0 nM
Sequence of GST-tagged MCM2 (human) (P49736 whole entry): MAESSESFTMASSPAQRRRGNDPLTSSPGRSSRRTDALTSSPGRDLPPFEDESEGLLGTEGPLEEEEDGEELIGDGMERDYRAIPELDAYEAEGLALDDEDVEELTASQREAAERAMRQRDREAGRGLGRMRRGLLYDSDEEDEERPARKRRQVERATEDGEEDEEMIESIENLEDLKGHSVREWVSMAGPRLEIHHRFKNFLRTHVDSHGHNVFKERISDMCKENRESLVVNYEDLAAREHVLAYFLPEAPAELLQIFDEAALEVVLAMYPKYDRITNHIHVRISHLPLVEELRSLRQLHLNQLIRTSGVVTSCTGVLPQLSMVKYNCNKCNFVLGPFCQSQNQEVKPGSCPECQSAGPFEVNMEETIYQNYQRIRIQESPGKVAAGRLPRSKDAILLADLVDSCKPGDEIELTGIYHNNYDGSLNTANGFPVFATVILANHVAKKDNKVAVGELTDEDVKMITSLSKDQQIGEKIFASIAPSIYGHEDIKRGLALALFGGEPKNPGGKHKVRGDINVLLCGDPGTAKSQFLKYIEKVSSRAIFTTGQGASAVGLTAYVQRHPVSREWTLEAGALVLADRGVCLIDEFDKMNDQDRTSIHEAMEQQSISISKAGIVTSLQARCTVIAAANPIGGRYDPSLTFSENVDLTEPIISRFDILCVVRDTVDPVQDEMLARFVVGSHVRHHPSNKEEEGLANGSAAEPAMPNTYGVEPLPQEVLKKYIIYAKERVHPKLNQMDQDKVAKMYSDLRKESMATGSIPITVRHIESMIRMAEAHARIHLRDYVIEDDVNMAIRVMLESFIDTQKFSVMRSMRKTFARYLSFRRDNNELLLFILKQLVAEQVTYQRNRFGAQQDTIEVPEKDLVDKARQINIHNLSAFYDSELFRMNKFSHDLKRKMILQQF

Sequence of full-length strep-tagged POLD3 (human) (Q15054 whole entry): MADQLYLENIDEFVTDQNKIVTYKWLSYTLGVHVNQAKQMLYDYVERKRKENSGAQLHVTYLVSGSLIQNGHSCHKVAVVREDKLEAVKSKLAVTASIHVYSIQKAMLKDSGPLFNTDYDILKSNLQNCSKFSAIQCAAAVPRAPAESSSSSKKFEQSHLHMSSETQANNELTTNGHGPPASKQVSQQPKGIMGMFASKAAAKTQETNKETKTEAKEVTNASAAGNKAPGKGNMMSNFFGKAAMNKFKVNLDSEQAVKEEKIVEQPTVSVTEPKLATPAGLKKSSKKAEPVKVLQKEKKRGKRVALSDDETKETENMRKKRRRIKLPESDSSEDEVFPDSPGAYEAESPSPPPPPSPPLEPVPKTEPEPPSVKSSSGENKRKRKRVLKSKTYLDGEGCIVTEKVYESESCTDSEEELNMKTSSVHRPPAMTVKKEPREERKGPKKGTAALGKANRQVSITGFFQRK

pKd [1]: 8.57
pKd (GST-tagged MCM2 (human)): 8.66
Substance: histone (H3.1-H4)2 tetramer (from UniProt P68431 1-136; P62805 1-103) (complex; other documents disagree on this pair)
